Changes are numbered by the printed parent chain. In names and notes the source's numbering stands.

Data set [1] deals with T1, Tth MAG lipase (Thermoanaerobacter ethanolicus, UniProt A0A1G7VV58).
T1 construct: gene SAMN04244560_02687; full length, residues 1-259; E. coli; pETM-14, Ni-NTA purified (kinetics); pETBlue-1 (crystals, some SeMet and lysine-methylated); homodimer; Ser113/His233, HGF 35-37, FSE 77-79, lid 141-183
Kind of data set: X-ray crystal structure. Type of data set: binding. The conditions noted are these: active site, bound by Glu43; native protein crystals, no glycerol added.

For data set [2], the target named is T1, Tth MAG lipase. Kind of data set: pNP ester hydrolysis, […] nm, Michaelis-Menten fit. Type of data set: biochemical. The conditions noted are these: 50 mM Tris-HCl pH 8.0, 40 °C, 1 mg/ml gum arabic.
The target of data set [3] is T1, Tth MAG lipase. Kind of data set: X-ray crystal structure; LC-MS of dissolved crystals. Type of data set: binding. The note with it: endogenous ligand from E. coli; loosely coordinated tetrahedral intermediate at Ser113; SeMet, lysine-methylated protein; active site and lid tunnel.
For data set [4], the target named is Tth MAG lipase (wild type), monoacylglycerol lipase from Thermoanaerobacter thermohydrosulfuricus (Thermoanaerobacter thermohydrosulfuricus). Kind of data set: SEC; size exclusion chromatography profile, Superdex 75 increase 3.2/300 column (Cytiva); dimeric and monomeric fractions.
Substrate in data set [5]: CCCC(=O)Oc1ccc([N+](=O)[O-])cc1
As to the kind of experiment: purified protein. Type of data set: biochemical, Thermoanaerobacter ethanolicus. The note with it: 50 mM Tris-HCl pH 8.0, 40 °C, 1 mg/ml gum arabic.

Substrate in data set [6]: CCCCCC(=O)Oc1ccc([N+](=O)[O-])cc1
As to the kind of experiment: purified protein. Type of data set: biochemical, Thermoanaerobacter ethanolicus. The note with it: 50 mM Tris-HCl pH 8.0, 40 °C, 1 mg/ml gum arabic.

Substrate in data set [7]: CCCCCCCC(=O)Oc1ccc([N+](=O)[O-])cc1
Kind of data set: purified protein. In kind it is biochemical, Thermoanaerobacter ethanolicus. The note with it: 50 mM Tris-HCl pH 8.0, 40 °C, 1 mg/ml gum arabic.

Substrate in data set [8]: CCCCCCCCCCCC(=O)Oc1ccc([N+](=O)[O-])cc1
As to the kind of experiment: purified protein. In kind it is biochemical, Thermoanaerobacter ethanolicus. The note with it: 50 mM Tris-HCl pH 8.0, 40 °C, 1 mg/ml gum arabic.

Substrate in data set [9]: CCCCCCCCCCCCCC(=O)Oc1ccc([N+](=O)[O-])cc1
As to the kind of experiment: purified protein. In kind it is biochemical, Thermoanaerobacter ethanolicus. The conditions noted are these: 50 mM Tris-HCl pH 8.0, 40 °C, 1 mg/ml gum arabic.

`OCC(O)CO` [glycerol]: the X-ray crystal structure entry in data set [1] was “glycerol is found in a literally identical active site position in five out of six”.
Usually Km stands for the substrate concentration at which the rate is half of its maximum. `CC(=O)Oc1ccc([N+](=O)[O-])cc1` [C2 pNP ester]: in data set [2], the Km was > 2 mM.
Take `CCCCCCCCCCCCCCCCCC(=O)OCC(O)CO` (stereo not shown) [glycerol monostearate, 2,3-dihydroxypropyloctadecanoate]: in data set [3], the “X-ray crystal structure; LC-MS of dissolved crystals” value is on record as “we modeled a monostearate (C18) acyl ligand into the electron density of the active Tth”.
The term stoichiometry N denotes a count of units in the complex or per binding partner. In data set [4], “Tth MAG lipase (wild type), monoacylglycerol lipase from Thermoanaerobacter thermohydrosulfuricus (enzyme)” had a stoichiometry N of 2.

B1: Tth MAG lipase (Thermoanaerobacter ethanolicus subsp. thermohydrosulfuricus) (protein)
chain: MQKAVEITYNGKTLRGMMHLPDDVKGKVPMVIMFHGFTGNKVESHFIFVKMSRALEKVGIGSVRFDFYGSGESDGDFSEMTFSSELEDARQILKFVKEQPTTDPERIGLLGLSMGGAIAGIVAREYKDEIKALVLWAPAFNMPELIMHESVKQYGAIMEQLGFVDIGGHKLSKDFVEDISKLNIFELSKGYDKKVLIVHGTNDEAVEYKVSDRILKEVYGDNATRVTIENADHTFKSLEWEKKAIEESVEFFKKELLKG
notes: full length, residues 1-259; E. coli; pETM-14, Ni-NTA purified (kinetics); pETBlue-1 (crystals, some SeMet and lysine-methylated); homodimer; Ser113/His233, HGF 35-37, FSE 77-79, lid 141-183
A word on the kcat: it is the maximal rate divided by the concentration of active sites. Consider B1, for which the Km in [5] is recorded as 7.1 ± 0.7 x 10^-1 mM; in [6] it was 3.6 ± 0.8 x 10^-1 mM; in data set [7], 4.9 ± 1.5 x 10^-1 mM; in data set [8], 0.1 mM; in [9], 0.1 mM. Also, the kcat in data set [5] was found to be 8.6 ± 0.5 s⁻¹; in data set [6], 4.9 ± 0.4 s⁻¹; in data set [7], 5.5 ± 0.8 s⁻¹.

B2: Tth MAG lipase (Thermoanaerobacter ethanolicus subsp. thermohydrosulfuricus; Y154A) (protein)
chain: B1 chain with Y154A
notes: as for B1
Regarding B2, in [6], the Km is reported as 4.8 ± 0.8 x 10^-1 mM and the kcat came out at 5.7 ± 0.4 s⁻¹.

B3: Tth MAG lipase (Thermoanaerobacter ethanolicus subsp. thermohydrosulfuricus; E43A) (protein)
chain: B1 chain with E43A
notes: as for B1
For the molecule B3, in data set [6], the Km is 7.1 ± 3.0 x 10^-1 mM and the kcat was 1.2 ± 0.3 x 10^1 s^-1.

The values are drawn from paper PMC10682391, “Discovery of a non-canonical prototype long-chain monoacylglycerol lipase through a structure-based endogenous reaction intermediate complex” (Nature Communications, 2023).
